Data: the supplement of paper PMC5998384

What was measured:
HeLa Kyoto [1] = assay: thermal stability score vs G1/S (z-score of summed log2 fold changes over temperatures); higher = more thermally stable than in G1/S
HeLa Kyoto [2] = assay: solubility change mitosis vs G1/S (difference of NP-40 vs SDS log2 ratios) (log2 ratio difference); higher = more soluble in mitosis
HeLa Kyoto [3] = assay: solubility in G1/S (NP-40 vs SDS abundance) (log2 ratio); higher = more soluble; details: cell cycle stage: G1/S
HeLa Kyoto [4] = assay: melting temperature (median over replicates), in situ; higher = more thermally stable
[5] = cell cycle stage: early G1 (4.5 h after nocodazole release)
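Throughout, for melting temperature (median over replicates), in situ: HeLa Kyoto cells synchronized by double thymidine or nocodazole block, proteins quantified by TMT10plex mass spectrometry, three independent biological replicates.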
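Throughout, for solubility change mitosis vs G1/S (difference of NP-40 vs SDS log2 ratios): synchronized HeLa Kyoto cells (double thymidine block for G1/S, nocodazole release for mitosis), protein amounts in NP-40 versus SDS lysates quantified by mass spectrometry, three biological replicates.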
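Throughout, for solubility in G1/S (NP-40 vs SDS abundance): HeLa Kyoto cells arrested at G1/S by double thymidine block, proteins quantified by TMT10plex mass spectrometry in mild NP-40 versus SDS extracts, three biological replicates.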
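Throughout, for thermal stability score vs G1/S (z-score of summed log2 fold changes over temperatures): synchronized HeLa Kyoto cells, proteins quantified by TMT10plex mass spectrometry, three biological replicates, mitosis taken 0.5 h after nocodazole release, G1/S directly after double thymidine block.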

| Substance | thermal stability score (HeLa Kyoto [1]; [5]) | thermal stability score (HeLa Kyoto [1]; cell cycle stage: mitosis) | solubility change mitosis (log2) (HeLa Kyoto [2]) | solubility in G1/S (log2) (HeLa Kyoto [3]) | melting temperature (HeLa Kyoto [4]; cell cycle stage: G1/S) [°C] | melting temperature (HeLa Kyoto [4]; cell cycle stage: mitosis) [°C] |
| --- | --- | --- | --- | --- | --- | --- |
| MAEDDPYLGRPEQMFHLDPSLTHTIFNPEVFQPQMALPTDGPYLQILEQPKQRGFRFRYVCEGPSHGGLPGASSEKNKKSYPQVKICNYVGPAKVIVQLVTNGKNIHLHAHSLVGKHCEDGICTVTAGPKDMVVGFANLGILHVTKKKVFETLEARMTEACIRGYNPGLLVHPDLAYLQAEGGGDRQLGDREKELIRQAALQQTKEMDLSVVRLMFTAFLPDSTGSFTRRLEPVVSDAIYDSKAPNASNLKIVRMDRTAGCVTGGEEIYLLCDKVQKDDIQIRFYEEEENGGVWEGFGDFSPTDVHRQFAIVFKTPKYKDINITKPASVFVQLRRKSDLETSEPKPFLYYPEIKDKEEVQRKRQKLMPNFSDSFGGGSGAGAGGGGMFGSGGGGGGTGSTGPGYSFPHYGFPTYGGITFHPGTTKSNAGMKHGTMDTESKKDPEGCDKSDDKNTVNLFGKVIETTEQDQEPSEATVGNGEVTLTYATGTKEESAGVQDNLFLEKAMQLAKRHANALFDYAVTGDVKMLLAVQRHLTAVQDENGDSVLHLAIIHLHSQLVRDLLEVTSGLISDDIINMRNDLYQTPLHLAVITKQEDVVEDLLRAGADLSLLDRLGNSVLHLAAKEGHDKVLSILLKHKKAALLLDHPNGDGLNAIHLAMMSNSLPCLLLLVAAGADVNAQEQKSGRTALHLAVEHDNISLAGCLLLEGDAHVDSTTYDGTTPLHIAAGRGSTRLAALLKAAGADPLVENFEPLYDLDDSWENAGEDEGVVPGTTPLDMATSWQVFDILNGKPYEPEFTSDDLLAQGDMKQLAEDVKLQLYKLLEIPDPDKNWATLAQKLGLGILNNAFRLSPAPSKTLMDNYEVSGGTVRELVEALRQMGYTEAIEVIQAASSPVKTTSQAHSLPLSPASTRQQIDELRDSDSVCDSGVETSFRKLSFTESLTSGASLLTLNKMPHDYGQEGPLEGKI [NFKB1] | 0.372 | 0.928 | -0.0714 | 0.137 | 48 | 48.5 |
| MENQVLTPHVYWAQRHRELYLRVELSDVQNPAISITENVLHFKAQGHGAKGDNVYEFHLEFLDLVKPEPVYKLTQRQVNITVQKKVSQWWERLTKQEKRPLFLAPDFDRWLDESDAEMELRAKEEERLNKLRLESEGSPETLTNLRKGYLFMYNLVQFLGFSWIFVNLTVRFCILGKESFYDTFHTVADMMYFCQMLAVVETINAAIGVTTSPVLPSLIQLLGRNFILFIIFGTMEEMQNKAVVFFVFYLWSAIEIFRYSFYMLTCIDMDWKVLTWLRYTLWIPLYPLGCLAEAVSVIQSIPIFNETGRFSFTLPYPVKIKVRFSFFLQIYLIMIFLGLYINFRHLYKQRRRRYGQKKKKIH [HACD3] | -0.451 | -1.3 | -0.00775 | -0.3 | 53.8 | 53.9 |
| MNTVLSRANSLFAFSLSVMAALTFGCFITTAFKDRSVPVRLHVSRIMLKNVEDFTGPRERSDLGFITFDITADLENIFDWNVKQLFLYLSAEYSTKNNALNQVVLWDKIVLRGDNPKLLLKDMKTKYFFFDDGNGLKGNRNVTLTLSWNVVPNAGILPLVTGSGHVSVPFPDTYEITKSY [SPCS3] | 0.503 | 1.67 | -0.0576 | 0.0331 | 53.5 | 53.8 |
| MAGARAAAAAASAGSSASSGNQPPQELGLGELLEEFSRTQYRAKDGSGTGGSKVERIEKRCLELFGRDYCFSVIPNTNGDICGHYPRHIVFLEYESSEKEKDTFESTVQVSKLQDLIHRSKMARCRGRFVCPVILFKGKHICRSATLAGWGELYGRSGYNYFFSGGADDAWADVEDVTEEDCALRSGDTHLFDKVRGYDIKLLRYLSVKYICDLMVENKKVKFGMNVTSSEKVDKAQRYADFTLLSIPYPGCEFFKEYKDRDYMAEGLIFNWKQDYVDAPLSIPDFLTHSLNIDWSQYQCWDLVQQTQNYLKLLLSLVNSDDDSGLLVHCISGWDRTPLFISLLRLSLWADGLIHTSLKPTEILYLTVAYDWFLFGHMLVDRLSKGEEIFFFCFNFLKHITSEEFSALKTQRRKSLPARDGGFTLEDICMLRRKDRGSTTSLGSDFSLVMESSPGATGSFTYEAVELVPAGAPTQAAWRKSHSSSPQSVLWNRPQPSEDRLPSQQGLAEARSSSSSSSNHSDNFFRMGSSPLEVPKPRSVDHPLPGSSLSTDYGSWQMVTGCGSIQERAVLHTDSSLPFSFPDELPNSCLLAALSDRETRLQEVRSAFLAAYSSTVGLRAVAPSPSGAIGGLLEQFARGVGLRSISSNAL [MTMR14] | -0.497 | -0.428 | -0.0972 | -0.145 | 52.8 |  |
| MDFSRNLYDIGEQLDSEDLASLKFLSLDYIPQRKQEPIKDALMLFQRLQEKRMLEESNLSFLKELLFRINRLDLLITYLNTRKEEMERELQTPGRAQISAYRVMLYQISEEVSRSELRSFKFLLQEEISKCKLDDDMNLLDIFIEMEKRVILGEGKLDILKRVCAQINKSLLKIINDYEEFSKERSSSLEGSPDEFSNGEELCGVMTISDSPREQDSESQTLDKVYQMKSKPRGYCLIINNHNFAKAREKVPKLHSIRDRNGTHLDAGALTTTFEELHFEIKPHDDCTVEQIYEILKIYQLMDHSNMDCFICCILSHGDKGIIYGTDGQEAPIYELTSQFTGLKCPSLAGKPKVFFIQACQGDNYQKGIPVETDSEEQPYLEMDLSSPQTRYIPDEADFLLGMATVNNCVSYRNPAEGTWYIQSLCQSLRERCPRGDDILTILTEVNYEVSNKDDKKNMGKQMPQPTFTLRKKLVFPSD [CASP8] | 0.959 | 2 | -0.167 | 0.075 | 48.5 | 48.7 |
| MAVESRVTQEEIKKEPEKPIDREKTCPLLLRVFTTNNGRHHRMDEFSRGNVPSSELQIYTWMDATLKELTSLVKEVYPEARKKGTHFNFAIVFTDVKRPGYRVKEIGSTMSGRKGTDDSMTLQSQKFQIGDYLDIAITPPNRAPPPSGRMRPY [SAP18] | 0.467 | 3.26 | 0.699 | -0.67 | 47.5 | 49.7 |
| MSPTISHKDSSRQRRPGNFSHSLDMKSGPLPPGGWDDSHLDSAGREGDREALLGDTGTGDFLKAPQSFRAELSSILLLLFLYVLQGIPLGLAGSIPLILQSKNVSYTDQAFFSFVFWPFSLKLLWAPLVDAVYVKNFGRRKSWLVPTQYILGLFMIYLSTQVDRLLGNTDDRTPDVIALTVAFFLFEFLAATQDIAVDGWALTMLSRENVGYASTCNSVGQTAGYFLGNVLFLALESADFCNKYLRFQPQPRGIVTLSDFLFFWGTVFLITTTLVALLKKENEVSVVKEETQGITDTYKLLFAIIKMPAVLTFCLLILTAKIGFSAADAVTGLKLVEEGVPKEHLALLAVPMVPLQIILPLIISKYTAGPQPLNTFYKAMPYRLLLGLEYALLVWWTPKVEHQGGFPIYYYIVVLLSYALHQVTVYSMYVSIMAFNAKVSDPLIGGTYMTLLNTVSNLGGNWPSTVALWLVDPLTVKECVGASNQNCRTPDAVELCKKLGGSCVTALDGYYVESIICVFIGFGWWFFLGPKFKKLQDEGSSSWKCKRNN [SLC33A1] | -1.24 | -1.12 | -0.141 | -0.0645 | 58.5 | 57.9 |
| MADGPRCKRRKQANPRRNNVTNYNTVVETNSDSDDEDKLHIVEEESVTDAADCEGVPEDDLPTDQTVLPGRSSEREGNAKNCWEDDRKEGQEILGPEAQADEAGCTVKDDECESDAENEQNHDPNVEEFLQQQDTAVIFPEAPEEDQRQGTPEASGHDENGTPDAFSQLLTCPYCDRGYKRFTSLKEHIKYRHEKNEDNFSCSLCSYTFAYRTQLERHMTSHKSGRDQRHVTQSGCNRKFKCTECGKAFKYKHHLKEHLRIHSGEKPYECPNCKKRFSHSGSYSSHISSKKCISLIPVNGRPRTGLKTSQCSSPSLSASPGSPTRPQIRQKIENKPLQEQLSVNQIKTEPVDYEFKPIVVASGINCSTPLQNGVFTGGGPLQATSSPQGMVQAVVLPTVGLVSPISINLSDIQNVLKVAVDGNVIRQVLENNQANLASKEQETINASPIQQGGHSVISAISLPLVDQDGTTKIIINYSLEQPSQLQVVPQNLKKENPVATNSCKSEKLPEDLTVKSEKDKSFEGGVNDSTCLLCDDCPGDINALPELKHYDLKQPTQPPPLPAAEAEKPESSVSSATGDGNLSPSQPPLKNLLSLLKAYYALNAQPSAEELSKIADSVNLPLDVVKKWFEKMQAGQISVQSSEPSSPEPGKVNIPAKNNDQPQSANANEPQDSTVNLQSPLKMTNSPVLPVGSTTNGSRSSTPSPSPLNLSSSRNTQGYLYTAEGAQEEPQVEPLDLSLPKQQGELLERSTITSVYQNSVYSVQEEPLNLSCAKKEPQKDSCVTDSEPVVNVIPPSANPINIAIPTVTAQLPTIVAIADQNSVPCLRALAANKQTILIPQVAYTYSTTVSPAVQEPPLKVIQPNGNQDERQDTSSEGVSNVEDQNDSDSTPPKKKMRKTENGMYACDLCDKIFQKSSSLLRHKYEHTGKRPHECGICKKAFKHKHHLIEHMRLHSGEKPYQCDKCGKRFSHSGSYSQHMNHRYSYCKREAEERDSTEQEEAGPEILSNEHVGARASPSQGDSDERESLTREEDEDSEKEEEEEDKEMEELQEEKECEKPQGDEEEEEEEEEVEEEEVEEAENEGEEAKTEGLMKDDRAESQASSLGQKVGESSEQVSEEKTNEA [ZEB1] | -0.796 | 2.75 | -0.0271 | -0.154 | 52.8 | 53.9 |
| MQDPNADTEWNDILRKKGILPPKESLKELEEEAEEEQRILQQSVVKTYEDMTLEELEDHEDEFNEEDERAIEMYRRRRLAEWKATKLKNKFGEVLEISGKDYVQEVTKAGEGLWVILHLYKQGIPLCALINQHLSGLARKFPDVKFIKAISTTCIPNYPDRNLPTIFVYLEGDIKAQFIGPLVFGGMNLTRDELEWKLSESGAIMTDLEENPKKPIEDVLLSSVRRSVLMKRDSDSEGD [PDCL3] | -0.23 | -0.106 | -0.135 | 0.617 | 54.2 | 54.2 |
| MGNGMCSRKQKRIFQTLLLLTVVFGFLYGAMLYYELQTQLRKAEAVALKYQQHQESLSAQLQVVYEHRSRLEKSLQKERLEHKKAKEDFLVYKLEAQETLNKGRQDSNSRYSALNVQHQMLKSQHEELKKQHSDLEEEHRKQGEDFSRTFNDHKQKYLQLQQEKEQELSKLKETVYNLREENRQLRKAHQDIHTQLQDVKQQHKNLLSEHEQLVVTLEDHKSALAAAQTQVAEYKQLKDTLNRIPSLRKPDPAEQQNVTQVAHSPQGYNTAREKPTREVQEVSRNNDVWQNHEAVPGRAEDTKLYAPTHKEAEFQAPPEPIQQEVERREPEEHQVEEEHRKALEEEEMEQVGQAEHLEEEHDPSPEEQDREWKEQHEQREAANLLEGHARAEVYPSAKPMIKFQSPYEEQLEQQRLAVQQVEEAQQLREHQEALHQQRLQGHLLRQQEQQQQQVAREMALQRQAELEEGRPQHQEQLRQQAHYDAMDNDIVQGAEDQGIQGEEGAYERDNQHQDEAEGDPGNRHEPREQGPREADPESEADRAAVEDINPADDPNNQGEDEFEEAEQVREENLPDENEEQKQSNQKQENTEVEEHLVMAGNPDQQEDNVDEQYQEEAEEEVQEDLTEEKKRELEHNAEETYGENDENTDDKNNDGEEQEVRDDNRPKGREEHYEEEEEEEEDGAAVAEKSHRRAEM [GOLIM4] | -2.18 | -3.71 | -0.0167 | 0.317 | 54 | 53 |
| ARFGEF1 | 0.51 | 0.0301 | -0.109 | -0.319 | 50.8 | 50.1 |
